First the molecules themselves.
B1: ZC3H11A(wt)-HA [human] / PABPN1-Flag [not stated] (parent)
chain 1: MPNQGEDCYFFFYSTCTKGDSCPFRHCEAAIGNETVCTLWQEGRCFRQVCRFRHMEIDKKRSEIPCYWENQPTGCQKLNCAFHHNRGRYVDGLFLPPSKTVLPTVPESPEEEVKASQLSVQQNKLSVQSNPSPQLRSVMKVESSENVPSPTHPPVVINAADDDEDDDDQFSEEGDETKTPTLQPTPEVHNGLRVTSVRKPAVNIKQGECLNFGIKTLEEIKSKKMKEKSKKQGEGSSGVSSLLLHPEPVPGPEKENVRTVVRTVTLSTKQGEEPLVRLSLTERLGKRKFSAGGDSDPPLKRSLAQRLGKKVEAPETNIDKTPKKAQVSKSLKERLGMSADPDNEDATDKVNKVGEIHVKTLEEILLERASQKRGELQTKLKTEGPSKTDDSTSGARSSSTIRIKTFSEVLAEKKHRQQEAERQKSKKDTTCIKLKIDSEIKKTVVLPPIVASRGQSEEPAGKTKSMQEVHIKTLEEIKLEKALRVQQSSESSTSSPSQHEATPGARRLLRITKRTGMKEEKNLQEGNEVDSQSSIRTEAKEASGETTGVDITKIQVKRCETMREKHMQKQQEREKSVLTPLRGDVASCNTQVAEKPVLTAVPGITRHLTKRLPTKSSQKVEVETSGIGDSLLNVKCAAQTLEKRGKAKPKVNVKPSVVKVVSSPKLAPKRKAVEMHAAVIAAVKPLSSSSVLQEPPAKKAAVAVVPLVSEDKSVTVPEAENPRDSLVLPPTQSSSDSSPPEVSGPSSSQMSMKTRRLSSASTGKPPLSVEDDFEKLIWEISGGKLEAEIDLDPGKDEDDLLLELSEMIDS
chain 2: MAAAAAAAAAAGAAGGRGSGPGRRRHLVPGAGGEAGEGAPGGAGDYGNGLESEELEPEELLLEPEPEPEPEEEPPRPRAPPGAPGPGPGSGAPGSQEEEEEPGLVEGDPGDGAIEDPELEAIKARVREMEEEAEKLKELQNEVEKQMNMSPPPGNAGPVIMSIEEKMEADARSIYVGNVDYGATAEELEAHFHGCGSVNRVTILCDKFSGHPKGFAYIEFSDKESVRTSLALDESLFRGRQIKVIPKRTNRPGISTTDRGFPRARYRARTTNYNSSRSRFYSGFNSRPRGRVYRGRARATSWYSPY

The variants in this experiment derive from B1. The experiment can be described thus: co-IP (PABPN1-Flag bait), Western blot quantification. The note with it: with PABPN1-Flag; three individual experiments; read off a plot. On the technique in general: In western blotting, separated proteins are transferred to a membrane and probed.
Turning to chain 1 C37A, the ratio to parent turned out to be 0.57. The figure for chain 1 C8A is 0.24. The figure for chain 1 C66A is 0.17.
